{"source": "paper PMC6423427", "origin": "cited, not measured here", "target": "BiP (Homo sapiens) (UniProt P11021)", "sequence (P11021 19-654)": "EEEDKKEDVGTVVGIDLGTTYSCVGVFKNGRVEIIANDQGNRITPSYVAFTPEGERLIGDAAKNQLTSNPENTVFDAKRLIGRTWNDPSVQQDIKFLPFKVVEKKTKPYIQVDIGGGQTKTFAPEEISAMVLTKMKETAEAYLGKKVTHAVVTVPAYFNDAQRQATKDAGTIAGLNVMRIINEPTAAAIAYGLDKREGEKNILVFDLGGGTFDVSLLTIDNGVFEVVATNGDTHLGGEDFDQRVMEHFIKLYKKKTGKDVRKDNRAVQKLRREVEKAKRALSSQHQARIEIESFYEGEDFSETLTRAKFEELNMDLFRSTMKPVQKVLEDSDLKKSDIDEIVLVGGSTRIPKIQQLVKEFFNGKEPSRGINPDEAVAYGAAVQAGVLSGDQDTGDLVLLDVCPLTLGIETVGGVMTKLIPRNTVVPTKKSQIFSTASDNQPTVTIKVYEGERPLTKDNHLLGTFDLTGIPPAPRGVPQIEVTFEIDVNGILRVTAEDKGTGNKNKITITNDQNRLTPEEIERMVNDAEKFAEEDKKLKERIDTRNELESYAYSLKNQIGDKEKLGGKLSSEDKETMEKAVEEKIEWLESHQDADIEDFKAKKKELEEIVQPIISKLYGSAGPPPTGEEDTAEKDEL", "data": [{"substance": "IRE1 LD (from UniProt O75460)", "values": [{"measurement": "Kd", "result": 1500, "unit": "nM"}]}]}
